Reference: the supplement of paper PMC7877785
± gives the uncertainty stated by the source.

Assay: self-splicing fitness, log relative to wild type (ln ratio); higher = more splicing; Tetrahymena group I intron in knt gene, E. coli kanamycin selection, DiMSum; sequences stand for … in CUCUCU…GGAGGGAAAAGUUAUCAGGCAUGCACCUGGUAGCUAGUCUUUAAACCAAUAGAUUGCAUCGGUUUAAAAGGCAAGACCGUCAAAUUGCGGGAAAGGGGUCAACAGCCGUUCAGUACCAAGUCUCAGGGGAAACUUUGAGAUGGCCUUGCAAAGGGUAUGGUAAUAAGCUGACGGACAUGGUCCUAACCACGCAGCCAAGUCCUAAGUCAACAGAUCUUCUGUUGAUAUGGAUGCAGUUCACAGACUAAAUGUCGGUCGGGGAAGAUGUAUUCUUCUCAUAAGAUAUAGUCGGACCUCUCCUUAAUGGGAGCUAGCGGAUGAAGUGAUGCAACACUGGAGCCGCUGGGAACUAAUUUGUAUGCGAAAGUAUAUUGAUUAGUUUUGGAGUACUCGUGGUCG
How it was run: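 The eight P1ex-region nucleotides of an intron in the knt kanamycin-resistance gene on pET-22b(+) were all randomised and the library put into E. coli BL21(DE3). Six replicate transformations were grown overnight at 37°C or 30°C on LB agar with or without 25 μg/mL kanamycin, together with 100 μg/mL carbenicillin, 50 μM IPTG and 0.2% rhamnose. Colonies were pooled and amplicon-sequenced on an Illumina HiSeq 2500. Fitness from DiMSum is the error-weighted combination of wild-type-normalised replicate fold changes, kanamycin over none.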

ACCGAGCAAUAUUACGAAUG
self-splicing fitness (ln) (30 °C): -2.51 ± 0.16
self-splicing fitness (ln) (37 °C): -2.7 ± 0.44

ACCGAGCAAUAUUACGAGGU
self-splicing fitness (ln) (30 °C): -2.42 ± 0.23
self-splicing fitness (ln) (37 °C): -0.758 ± 0.2

ACCGAGCAAUAUUACGAUGC
self-splicing fitness (ln) (30 °C): -1.97 ± 0.14
self-splicing fitness (ln) (37 °C): -1.56 ± 0.14

ACCGAGCAAUAUUACGCAGU
self-splicing fitness (ln) (30 °C): -3.67 ± 0.16
self-splicing fitness (ln) (37 °C): -2.48 ± 0.16

ACCGAGCAAUAUUACGCAUA
self-splicing fitness (ln) (30 °C): -2.42 ± 0.21
self-splicing fitness (ln) (37 °C): -2.57 ± 0.2

ACCGAGCAAUAUUACGCGCA
self-splicing fitness (ln) (30 °C): -2.06 ± 0.1
self-splicing fitness (ln) (37 °C): -0.82 ± 0.078

ACCGAGCAAUAUUACGCGUC
self-splicing fitness (ln) (30 °C): -3.17 ± 0.15
self-splicing fitness (ln) (37 °C): -2.18 ± 0.22

ACCGAGCAAUAUUACGCUAU
self-splicing fitness (ln) (30 °C): -2.77 ± 0.14
self-splicing fitness (ln) (37 °C): -2.26 ± 0.14

ACCGAGCAAUAUUACGCUCC
self-splicing fitness (ln) (30 °C): -2.85 ± 0.39
self-splicing fitness (ln) (37 °C): -1.79 ± 0.44

ACCGAGCAAUAUUACGGCAU
self-splicing fitness (ln) (30 °C): -1.09 ± 0.09
self-splicing fitness (ln) (37 °C): -0.529 ± 0.11

ACCGAGCAAUAUUACGGCCG
self-splicing fitness (ln) (30 °C): -2.57 ± 0.09
self-splicing fitness (ln) (37 °C): -1.09 ± 0.1

ACCGAGCAAUAUUACGGUAA
self-splicing fitness (ln) (30 °C): -2.6 ± 0.18
self-splicing fitness (ln) (37 °C): -1.7 ± 0.12

ACCGAGCAAUAUUACGGUGA
self-splicing fitness (ln) (30 °C): -3.07 ± 0.18
self-splicing fitness (ln) (37 °C): -1.48 ± 0.13

ACCGAGCAAUAUUACGGUUG
self-splicing fitness (ln) (30 °C): -3.88 ± 0.21
self-splicing fitness (ln) (37 °C): -2.51 ± 0.16

ACCGAGCAAUAUUACGUCCG
self-splicing fitness (ln) (30 °C): -4.36 ± 0.24
self-splicing fitness (ln) (37 °C): -1.5 ± 0.14

ACCGAGCAAUAUUACGUGUG
self-splicing fitness (ln) (30 °C): -2.5 ± 0.08
self-splicing fitness (ln) (37 °C): -1.79 ± 0.079

ACCGAGCAAUAUUACGUUCA
self-splicing fitness (ln) (30 °C): -1.34 ± 0.13
self-splicing fitness (ln) (37 °C): -0.705 ± 0.1

ACCGAGCAAUAUUACGUUUC
self-splicing fitness (ln) (30 °C): -4.37 ± 0.29
self-splicing fitness (ln) (37 °C): -2.94 ± 0.32

ACCUAGCAAUAUUACGAAUA
self-splicing fitness (ln) (30 °C): -2.75 ± 0.15
self-splicing fitness (ln) (37 °C): -2.94 ± 0.18

ACCUAGCAAUAUUACGACAC
self-splicing fitness (ln) (30 °C): -0.951 ± 0.1
self-splicing fitness (ln) (37 °C): -0.536 ± 0.17

ACCUAGCAAUAUUACGACCG
self-splicing fitness (ln) (30 °C): -1.16 ± 0.13
self-splicing fitness (ln) (37 °C): 0.144 ± 0.12

ACCUAGCAAUAUUACGAGGA
self-splicing fitness (ln) (30 °C): -2.16 ± 0.12
self-splicing fitness (ln) (37 °C): -0.9 ± 0.12

ACCUAGCAAUAUUACGAGUA
self-splicing fitness (ln) (30 °C): -2.47 ± 0.14
self-splicing fitness (ln) (37 °C): -1.16 ± 0.12

ACCUAGCAAUAUUACGAGUC
self-splicing fitness (ln) (30 °C): -2.53 ± 0.3
self-splicing fitness (ln) (37 °C): -2.78 ± 0.48

ACCUAGCAAUAUUACGAUAU
self-splicing fitness (ln) (30 °C): -1.58 ± 0.092
self-splicing fitness (ln) (37 °C): -0.443 ± 0.12

ACCUAGCAAUAUUACGAUGC
self-splicing fitness (ln) (30 °C): -1.22 ± 0.078
self-splicing fitness (ln) (37 °C): -0.172 ± 0.081

ACCUAGCAAUAUUACGCACU
self-splicing fitness (ln) (30 °C): -0.127 ± 0.085
self-splicing fitness (ln) (37 °C): 0.3 ± 0.12

ACCUAGCAAUAUUACGCAGU
self-splicing fitness (ln) (30 °C): -2.58 ± 0.17
self-splicing fitness (ln) (37 °C): -1.53 ± 0.19

ACCUAGCAAUAUUACGCAUA
self-splicing fitness (ln) (30 °C): -2 ± 0.2
self-splicing fitness (ln) (37 °C): -1.85 ± 0.16

ACCUAGCAAUAUUACGCGCA
self-splicing fitness (ln) (30 °C): -0.569 ± 0.08
self-splicing fitness (ln) (37 °C): -0.709 ± 0.087

ACCUAGCAAUAUUACGCGCC
self-splicing fitness (ln) (30 °C): -0.396 ± 0.09
self-splicing fitness (ln) (37 °C): -0.477 ± 0.12

ACCUAGCAAUAUUACGCGCG
self-splicing fitness (ln) (30 °C): -0.971 ± 0.13
self-splicing fitness (ln) (37 °C): 0.377 ± 0.13

ACCUAGCAAUAUUACGCGGC
self-splicing fitness (ln) (30 °C): -3.53 ± 0.33
self-splicing fitness (ln) (37 °C): -1.38 ± 0.17

ACCUAGCAAUAUUACGCGGU
self-splicing fitness (ln) (30 °C): -4.32 ± 0.46
self-splicing fitness (ln) (37 °C): -2.48 ± 0.31

ACCUAGCAAUAUUACGCGUC
self-splicing fitness (ln) (30 °C): -2.91 ± 0.27
self-splicing fitness (ln) (37 °C): -0.412 ± 0.14

ACCUAGCAAUAUUACGCUAC
self-splicing fitness (ln) (30 °C): -2.93 ± 0.13
self-splicing fitness (ln) (37 °C): -2.02 ± 0.15

ACCUAGCAAUAUUACGCUCA
self-splicing fitness (ln) (30 °C): -1.71 ± 0.14
self-splicing fitness (ln) (37 °C): -0.169 ± 0.17

ACCUAGCAAUAUUACGCUGC
self-splicing fitness (ln) (30 °C): -2.42 ± 0.12
self-splicing fitness (ln) (37 °C): -1.06 ± 0.13

ACCUAGCAAUAUUACGCUUU
self-splicing fitness (ln) (30 °C): -1.26 ± 0.055
self-splicing fitness (ln) (37 °C): -0.293 ± 0.081

ACCUAGCAAUAUUACGGGAU
self-splicing fitness (ln) (30 °C): -2.07 ± 0.1
self-splicing fitness (ln) (37 °C): -0.904 ± 0.1

ACCUAGCAAUAUUACGGUCG
self-splicing fitness (ln) (30 °C): -3.53 ± 0.17
self-splicing fitness (ln) (37 °C): -2.11 ± 0.14

ACCUAGCAAUAUUACGUAAA
self-splicing fitness (ln) (30 °C): -2.13 ± 0.096
self-splicing fitness (ln) (37 °C): -1.47 ± 0.12

ACCUAGCAAUAUUACGUGAA
self-splicing fitness (ln) (30 °C): -2.1 ± 0.097
self-splicing fitness (ln) (37 °C): -1.18 ± 0.12

ACCUAGCAAUAUUACGUGCA
self-splicing fitness (ln) (30 °C): -2.89 ± 0.12
self-splicing fitness (ln) (37 °C): -1.25 ± 0.1

ACGAAGCAAUAUUACGACAA
self-splicing fitness (ln) (30 °C): -0.701 ± 0.2
self-splicing fitness (ln) (37 °C): -0.985 ± 0.19

ACGAAGCAAUAUUACGAGCG
self-splicing fitness (ln) (30 °C): -0.87 ± 0.075
self-splicing fitness (ln) (37 °C): -0.411 ± 0.12

ACGAAGCAAUAUUACGAGUA
self-splicing fitness (ln) (30 °C): -3.49 ± 0.21
self-splicing fitness (ln) (37 °C): -2.73 ± 0.17
